# Source: patent publication US20220204644A1 (MAB DISCOVERY, published 2022)
# B1: B100 anti-HER2 monoclonal antibody (antibody, V domains shown)
# VH: QSVEESGGRLVTPGTPLTLTCTVSGFSLSNYGVSWVRQAPGKGLEYIGIISGSGFTYYASWAKGRFTISKTSTTVDLKITSPTTKDTATYFCARGVVPGYNAGGLWGQGTLVTVSS
# VL: DIVMTQTPASVSEPVGGTVTIKCQASQGISTALAWYQQKPGQRPKLLIYSASTLASGVSSRFKGSGSGTQFTLTISDLECADAATYYCQCTAAGSVSVGAFGGGTEVVVN
# notes: It was detected in the ELISA with an anti-human F(ab)2 conjugate; also called B100 antibody
# Legend:
# [1] = molecular target: T1, HER2 sub-domain I, recombinant (human, UniProt P04626 23-217, limits assumed); experiment: ELISA, coated HER2 domain
# T1 construct: domain: sub-domain I; also called HER2 domain I
# Description: (§1) Recombinant Her2 domains (full length ECD purchased from Biozol, ECD domains produced at Mab Discovery), were coated on a 384-well Nunc™ MaxiSorp™ plate at optimized concentrations ([…]) in PBS for one hour at room temperature. After washing three times with wash buffer (PBS, 0.1% Tween), plates were blocked with PBS, 2% BSA, 0.05% Tween for one hour at room temperature. Plates were washed again three time with wash buffer and antibodies at a concentration of 10 μg/ml in PBS, 0.5% BSA, 0.05% Tween were incubated for one hour at room temperature. After 3 washes in wash buffer, wells were incubated with 12.5 μl of a 1:5000 dilution of anti-human peroxidase-linked, species specific F(ab)2 Fragment from goat (AbD Serotec) in ELISA buffer for one hour at room temperature. Wells were washed six times with wash buffer and 15 μl/well TMB substrate solution (Invitrogen) were added. After 10 minutes at room temperature 15 μl Stop solution (1M HCl) were added per well and absorbance at 450 and 620 nm wavelength was measured using a Tecan M1000 microplate reader.
# [2] = molecular target: T2, HER2 full-length extracellular domain (ECD), recombinant (human, UniProt P04626 23-652); experiment: ELISA, coated HER2 ECD, antibody at 10 µg/ml
# T2 construct: extracellular domain; also called full length ECD; HER2 full-length ECD
# Description: as §1
binder,measurement,setting,value
B1,binding result,[1],no binding (tested: 10 µg/ml)
same,binding result,[2],binds
